In article doi:10.1101/211250 (bioRxiv, 2017):
Non-standard residues stand in square brackets, D forms with d. No end group written: not given here. pS = N[C@@H](COP(=O)(O)O)C(=O)O

B9: FITC-labeled p-1 phosphorylated MCC peptide (peptide)
peptide: HTNET[pS]L
modifications: also: FITC label (position not given here)
B13: FITC-labeled p-3 phosphorylated RPS6KA2 peptide (peptide)
peptide: RLT[pS]TRL
modifications: also: FITC label (position not given here)

What was measured:
[1] = target: FITC-labeled p-1 phosphorylated MCC peptide (human); test: MST
[2] = target: FITC-labeled p-3 phosphorylated RPS6KA2 peptide (human); test: MST
[3] = target: FITC-labeled p-6 phosphorylated TANC1 peptide (human); test: MST
[4] = target: FITC-labeled phosphomimetic RPS6KA2 peptide (p-3 Ser to Glu) (human) (UniProt Q15349); test: MST
[5] = target: FITC-labeled phosphomimetic TANC1 peptide (p-6 Ser to Glu) (human) (UniProt Q9C0D5); test: MST
Scribble PDZ1 [6] = target: T1, Scribble PDZ1 (human, UniProt Q14160 719-829); test: ITC
Scribble PDZ1 K746A = Scribble PDZ1 K746A (human, UniProt Q14160 719-829, K746A); test: ITC
Scribble PDZ1 R762A = Scribble PDZ1 R762A (human, UniProt Q14160 719-829, R762A); test: ITC
Scribble PDZ1 R801A = Scribble PDZ1 R801A (human, UniProt Q14160 719-829, R801A); test: ITC
[7] = target: Scribble PDZ1 R762A/A743R (human, UniProt Q14160 719-829, R762A | A743R); test: ITC
Scribble PDZ1 [8] = target: T1, Scribble PDZ1; test: MST
[9] = target: B13; test: MST
[10] = target: B9; test: MST

T1 sequence (Q14160 719-829): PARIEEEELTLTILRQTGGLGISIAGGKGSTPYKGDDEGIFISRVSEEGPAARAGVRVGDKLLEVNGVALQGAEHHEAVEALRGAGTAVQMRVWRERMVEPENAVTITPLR
Scribble PDZ1 R762A/A743R, sequence (Q14160 719-829 A743R/R762A): as the sequence (Q14160 719-829) above, with A25R, R44A counted along it
Scribble PDZ1 R762A, sequence (Q14160 719-829 R762A): as the sequence (Q14160 719-829) above, with R44A counted along it
Scribble PDZ1 K746A, sequence (Q14160 719-829 K746A): as the sequence (Q14160 719-829) above, with K28A counted along it
Scribble PDZ1 R801A, sequence (Q14160 719-829 R801A): as the sequence (Q14160 719-829) above, with R83A counted along it
FITC-labeled phosphomimetic TANC1 peptide (p-6 Ser to Glu) (human), sequence (Q9C0D5 whole entry, looked up, tested part not stated): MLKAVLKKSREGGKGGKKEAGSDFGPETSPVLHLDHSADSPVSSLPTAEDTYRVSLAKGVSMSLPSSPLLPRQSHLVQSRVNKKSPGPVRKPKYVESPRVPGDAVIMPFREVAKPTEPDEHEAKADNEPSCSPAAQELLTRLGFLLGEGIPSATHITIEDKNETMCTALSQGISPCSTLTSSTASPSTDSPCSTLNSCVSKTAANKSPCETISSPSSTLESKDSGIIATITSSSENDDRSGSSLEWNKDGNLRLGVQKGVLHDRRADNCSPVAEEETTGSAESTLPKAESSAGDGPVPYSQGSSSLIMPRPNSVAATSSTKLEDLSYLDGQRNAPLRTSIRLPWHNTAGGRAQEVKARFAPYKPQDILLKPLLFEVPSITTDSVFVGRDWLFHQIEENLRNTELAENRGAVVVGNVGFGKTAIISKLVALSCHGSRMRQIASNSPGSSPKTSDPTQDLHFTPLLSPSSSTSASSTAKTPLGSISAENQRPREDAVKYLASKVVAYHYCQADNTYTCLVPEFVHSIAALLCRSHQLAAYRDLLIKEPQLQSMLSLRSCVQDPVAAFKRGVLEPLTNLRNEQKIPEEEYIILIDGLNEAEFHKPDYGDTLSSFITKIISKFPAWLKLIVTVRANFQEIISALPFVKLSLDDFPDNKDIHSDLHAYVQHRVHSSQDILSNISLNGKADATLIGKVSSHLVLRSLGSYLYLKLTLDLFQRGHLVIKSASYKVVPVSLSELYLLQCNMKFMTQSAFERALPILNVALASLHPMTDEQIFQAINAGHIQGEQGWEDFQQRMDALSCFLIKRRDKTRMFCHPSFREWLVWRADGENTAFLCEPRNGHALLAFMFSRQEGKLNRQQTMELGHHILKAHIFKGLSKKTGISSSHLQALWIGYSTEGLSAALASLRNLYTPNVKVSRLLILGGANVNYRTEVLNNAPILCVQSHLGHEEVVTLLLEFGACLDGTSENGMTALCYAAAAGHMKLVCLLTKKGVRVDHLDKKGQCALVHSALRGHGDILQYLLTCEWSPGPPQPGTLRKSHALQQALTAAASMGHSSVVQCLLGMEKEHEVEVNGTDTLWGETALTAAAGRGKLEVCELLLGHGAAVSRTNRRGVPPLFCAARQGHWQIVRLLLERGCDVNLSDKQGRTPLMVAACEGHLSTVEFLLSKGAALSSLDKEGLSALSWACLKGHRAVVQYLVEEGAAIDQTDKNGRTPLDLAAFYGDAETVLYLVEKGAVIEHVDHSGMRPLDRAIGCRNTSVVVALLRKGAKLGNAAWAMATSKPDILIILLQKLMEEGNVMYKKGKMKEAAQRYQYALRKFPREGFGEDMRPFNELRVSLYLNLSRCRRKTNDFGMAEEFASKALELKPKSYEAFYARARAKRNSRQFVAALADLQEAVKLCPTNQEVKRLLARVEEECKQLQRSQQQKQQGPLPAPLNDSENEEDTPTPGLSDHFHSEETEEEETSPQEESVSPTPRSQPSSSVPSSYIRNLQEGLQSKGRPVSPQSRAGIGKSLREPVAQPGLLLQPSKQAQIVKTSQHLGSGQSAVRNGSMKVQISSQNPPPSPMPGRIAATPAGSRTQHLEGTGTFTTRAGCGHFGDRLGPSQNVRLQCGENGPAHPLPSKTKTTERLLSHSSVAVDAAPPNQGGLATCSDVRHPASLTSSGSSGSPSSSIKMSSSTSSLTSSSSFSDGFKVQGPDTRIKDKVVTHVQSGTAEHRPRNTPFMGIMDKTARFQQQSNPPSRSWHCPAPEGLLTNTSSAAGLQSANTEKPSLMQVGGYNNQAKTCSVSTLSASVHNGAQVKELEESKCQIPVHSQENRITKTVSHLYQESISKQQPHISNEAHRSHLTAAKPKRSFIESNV
FITC-labeled phosphomimetic RPS6KA2 peptide (p-3 Ser to Glu) (human), sequence (Q15349 whole entry, looked up, tested part not stated): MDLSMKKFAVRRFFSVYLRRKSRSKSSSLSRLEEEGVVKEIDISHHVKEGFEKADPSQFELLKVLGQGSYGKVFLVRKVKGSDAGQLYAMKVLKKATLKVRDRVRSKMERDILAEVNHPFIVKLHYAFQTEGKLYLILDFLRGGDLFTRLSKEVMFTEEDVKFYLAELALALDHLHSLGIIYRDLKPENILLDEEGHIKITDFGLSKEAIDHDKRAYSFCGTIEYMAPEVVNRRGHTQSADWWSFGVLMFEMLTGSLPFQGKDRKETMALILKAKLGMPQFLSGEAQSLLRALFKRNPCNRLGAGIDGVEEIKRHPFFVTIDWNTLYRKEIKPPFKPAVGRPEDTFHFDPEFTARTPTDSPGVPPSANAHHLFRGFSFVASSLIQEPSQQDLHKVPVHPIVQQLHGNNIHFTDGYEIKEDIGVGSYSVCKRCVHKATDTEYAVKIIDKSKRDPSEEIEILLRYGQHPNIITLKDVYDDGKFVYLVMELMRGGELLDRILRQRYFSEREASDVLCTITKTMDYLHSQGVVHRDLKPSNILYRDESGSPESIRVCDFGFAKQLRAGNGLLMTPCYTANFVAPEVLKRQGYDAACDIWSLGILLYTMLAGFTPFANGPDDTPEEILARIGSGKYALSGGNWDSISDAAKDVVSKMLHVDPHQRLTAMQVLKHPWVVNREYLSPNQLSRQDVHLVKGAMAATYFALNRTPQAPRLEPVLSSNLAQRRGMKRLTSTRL

In the case of DLG1 PDZ2 (domain or fragment), the fold lower affinity than for the unphosphorylated peptide [1] is reported as 9 fold, the fold higher affinity than for the unphosphorylated peptide [2] is reported as 1.3 fold and the fold lower affinity than for the unphosphorylated peptide [3] is reported as 2.9 fold. It also gave a fold higher affinity than for the unphosphorylated peptide [4] of 7 fold and a fold lower affinity than for the unphosphorylated peptide [5] of 2.4 fold.

B1: p-3 phosphorylated RPS6KA2 peptide (MKRLTpSTRL-coo-) (peptide)
peptide: MKRLT[pS]TRL-OH
modifications: N-terminus assumed
SMILES: CSCC[C@H](N)C(=O)N[C@@H](CCCCN)C(=O)N[C@@H](CCCNC(=N)N)C(=O)N[C@@H](CC(C)C)C(=O)N[C@H](C(=O)N[C@@H](COP(=O)(O)O)C(=O)N[C@H](C(=O)N[C@@H](CCCNC(=N)N)C(=O)N[C@@H](CC(C)C)C(=O)O)[C@@H](C)O)[C@@H](C)O
In the case of B1, the “fold lower KD than for the unphosphorylated peptide” value (Scribble PDZ1 [6]) is reported as 5 fold, the binding result (Scribble PDZ1 K746A) is reported as “binds” and the binding result (Scribble PDZ1 R762A) is reported as “binds”. B1: binds (Scribble PDZ1 R801A); binds [7].

B2: FITC-labeled unphosphorylated TANC1 peptide (KRSFIESNV-coo-) (peptide)
peptide: KRSFIESNV-OH
modifications: also: FITC label, position not given here
B2: binds (Scribble PDZ1 [8]).

B3: unphosphorylated MCC peptide (RPHTNETSL-coo-) (peptide)
peptide: RPHTNETSL-OH
B3: binds (Scribble PDZ1 [6]); binds (Scribble PDZ1 R762A); binds [7].

B4: FITC-labeled p-6 phosphorylated TANC1 peptide (peptide)
peptide: KR[pS]FIESNV
modifications: also: FITC label, position not given here
B4: binds (Scribble PDZ1 [8]).

B5: FITC-labeled phosphomimetic RPS6KA2 peptide (p-3 Ser to Glu) (peptide)
peptide: RLTETRL
modifications: also: FITC label, position not given here
B5: binds (Scribble PDZ1 [8]).

B6: Shank1 PDZ (domain or fragment)
chain: TVLLQKKDSEGFGFVLRGAKAQTPIEEFTPTPAFPALQYLESVDEGGVAWRAGLRMGDFLIEVNGQNVVKVGHRQVVNMIRQGGNTLMVKVVMVT
With B6 the “fold lower affinity than for the unphosphorylated peptide” value [9] was 3.6 fold and the “fold lower affinity than for the unphosphorylated peptide” value [10] was 3 fold.

B7: FITC-labelled unphosphorylated RPS6KA1 peptide (VRKLPSTTL-coo-) (peptide)
peptide: VRKLPSTTL-OH
modifications: also: FITC label, position not given here
B7 showed a Kd (Scribble PDZ1 [8]) of 1000 nM.

B8: FITC-labelled phosphorylated RPS6KA1 peptide (S732, p-3) (peptide)
peptide: VRKLP[pS]TTL
modifications: also: FITC label, position not given here
In the case of B8, the Kd (Scribble PDZ1 [8]) is reported as 390 nM.

B9: binds (Scribble PDZ1 [8]).

B10: p-1 phosphorylated MCC peptide (RPHTNETpSL-coo-) (peptide)
peptide: RPHTNET[pS]L-OH
modifications: N-terminus assumed
SMILES: CC(C)C[C@H](NC(=O)[C@H](COP(=O)(O)O)NC(=O)[C@@H](NC(=O)[C@H](CCC(=O)O)NC(=O)[C@H](CC(N)=O)NC(=O)[C@@H](NC(=O)[C@H](Cc1c[nH]cn1)NC(=O)[C@@H]1CCCN1C(=O)[C@@H](N)CCCNC(=N)N)[C@@H](C)O)[C@@H](C)O)C(=O)O
In the case of B10, the “fold lower KD than for the unphosphorylated peptide” value (Scribble PDZ1 [6]) is reported as 2 fold, the binding result (Scribble PDZ1 R762A) is reported as “binds” and the binding result [7] is reported as “binds”.

B11: FITC-labeled unphosphorylated MCC peptide (HTNETSL-coo-) (peptide)
peptide: HTNETSL-OH
modifications: also: FITC label, position not given here
B11: binds (Scribble PDZ1 [8]).

B12: FITC-labeled unphosphorylated RPS6KA2 peptide (RLTSTRL-coo-) (peptide)
peptide: RLTSTRL-OH
modifications: also: FITC label, position not given here
B12: binds (Scribble PDZ1 [8]).

B13: binds (Scribble PDZ1 [8]).

B14: unphosphorylated RPS6KA2 peptide (MKRLTSTRL-coo-) (peptide)
peptide: MKRLTSTRL-OH
B14: binds (Scribble PDZ1 [6]); binds (Scribble PDZ1 K746A); binds (Scribble PDZ1 R762A). B14: binds (Scribble PDZ1 R801A); binds [7].
